Data reported in the supplement of paper PMC9170038.

Test system: MS2 coat protein
Assay: apparent KD of MS2 coat protein; designed switch direction (-1 OFF switch, 1 ON switch): -1; higher = weaker reporter binding
In short: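 For each design, the apparent KD is the median over clusters of curves fitted to normalised cluster fluorescence. Clusters held RNA switches with common flanks, transcribed on Illumina chips by stalled E. coli RNA polymerase. These were titrated with SNAP-549-labelled MS2 coat protein, doubling from 0.7 or 1.5 nM to 3 µM, without input, with 200 uM small-molecule ligand, or with an oligonucleotide input.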

[1] = Eterna round: R95, input ligand: FMN 200 uM
[2] = Eterna round: R95, input ligand: microRNA oligo, concentration not stated
[3] = Eterna round: R95, input ligand: none
[4] = input ligand: microRNA oligo, concentration not stated

Row | Sequence | apparent KD of MS2 coat protein [2] [nM] | apparent KD of MS2 coat protein (input ligand: FMN 200 uM) [nM] | apparent KD of MS2 coat protein (input ligand: none) [nM] | further results
1 | UAAAAGGUAGGAUAUACGAAAAAAAAGGGUAGAAAAAAAACACAUGAGGAUCACCCAUGUAGAAGGACCAAAAC [salish99_ex2_r3_047] (puzzle: Exclusion 2) | 33.2 |  |  | apparent KD of MS2 coat protein [1]: 103 nM; apparent KD of MS2 coat protein [3]: 30.3 nM
2 | AUAAAACGUGUAGGAUAUGCGUGGCGAAGCUAUGCAGAAGGACAUGAGGAUCACCCAUGUUCUAGCGUCUGCGUACAGAUGCUA [JL eng1 1.35 mod 4] (Eterna round: R96, puzzle: Exclusion NG 1) |  | 18.2 | 14.8 | apparent KD of MS2 coat protein [4]: 10.9 nM
3 | UUGCGCUGAGGAUAUAUAACCGAUGACAUGAGGAUCACCCAUGUGGAUACAAGGGACUGAAUAGAAGGUAGCCAGA [Eternabot (L1) Solution 69] (Eterna round: R97, puzzle: Exclusion 5) |  | 42.4 | 79.9 | 
4 | GGGACCCUUGUAGGAUAUAGAACCGCAGGAGGUCUAGAAGGGCACUGGUCGCCGUGGACAUGAGGAUCACCCAUGUGUUUGCCC [Eternabot solution 36] (Eterna round: R96, puzzle: Exclusion NG 1) |  | 55.2 | 52.4 | apparent KD of MS2 coat protein [4]: 40.2 nM
5 | UAUUAAUGCAAGGAUAUGCUAUUAAUUUAUUUUGCAGAAGGUGCAACAUGAGGAUCACCCAUGUUGGAGGGUAU [JR_E6_Sub028] (puzzle: Exclusion 6) | 19.3 |  |  | 
6 | GUAGAGUAAGGAUAUACAGAAUAGGAUAGAAUGGUUAGAAUGUAGAAGGUACAUGAGGAUCACCCAUGUAAUGU [Excluse me!!!! 8 - Jieux - Exclusion 4] (puzzle: Exclusion 4) | 19.7 |  |  | 
7 | GCAAUGAGUGUGAGGAUAUGCUGGUCCUUGGAUCAGCAGAAGGCACAUGAGGAUCACCCAUGUGAAAACAUUGC [Mat - Exclusion 4 - JL Mod - D63] (puzzle: Brourd's mod of Exclusion 4) | 17.4 |  |  | apparent KD of MS2 coat protein [1]: 147 nM; apparent KD of MS2 coat protein [3]: 23.1 nM
8 | GAAUUAAUUAAUUAAUAAUACAUGAGGAUCACCCAUGUAGAUCCUACAUACAAGCUUUGUAGCUCGUCUUAUAAUUA [Stov1/3-A2] (Eterna round: R97, puzzle: Sensor, turn-off variant 1) |  | 330 | 480 | 
9 | GUGUAACUACACGGGCUCAACAUGAGGAUCACCCAUGUCAUACACGCAAGCUUUUUGCUUGUCUUAUCUGUCCGUGU [Cegeesre] (puzzle: Sensor v3, turn-off variant 1) | 12.2 |  |  | apparent KD of MS2 coat protein [1]: 12.4 nM; apparent KD of MS2 coat protein [3]: 11.5 nM
10 | UUGGUUAUCCAUGGAAGUAACAUGAGGAUCACCCAUGUAUGUCUAGUUUUUUGUUCGUCAUAGGCCUUUUGUUUGGA [JR_SV3TOV1_Sub022] (puzzle: Sensor v3, turn-off variant 1) | 27.9 |  |  | apparent KD of MS2 coat protein [1]: 26.8 nM; apparent KD of MS2 coat protein [3]: 30.9 nM
11 | UAUUACUCAGGAUAUAUGAUGUGAAACAUGAGGAUCACCCAUGUAAUAUUAUGGAUGUAAAUAGAAGGGAGAUUUU [Mat - Exclusion 5 - JL mod - D18] (puzzle: Exclusion 5) | 68.4 |  |  | apparent KD of MS2 coat protein [1]: 51.8 nM; apparent KD of MS2 coat protein [3]: 54.8 nM
12 | GGCAUCGGAGGAUAUACUUAUGGUGAUGCCCGAAGCUUUCUACUUGAGGAUCACCCAAGUAGAAGGCCGAUGCC [jl-ex2.4.79 ViennaUCT mod] (Eterna round: R97, puzzle: Exclusion 2) |  | 11.2 | 12.7 | 
13 | GGUGCGUUUGUGAGGAUAUGCUGGUCCUUGGUUCGGCAGAAGGCACAUGAGGAUCACCCAUGUGGUGUCGUGCC [salish99_Bmod_Ex4_045] (puzzle: Brourd's mod of Exclusion 4) | 33.1 |  |  | 
14 | GGAUCGAGUGUGAGGAUAUACCUAUGGAAACAUAGGUAGAAGGCACAUGAGGAUCACCCAUGUUCCAACGGUCC [Mat - Exclusion 4 - Eli Mod - D11] (Eterna round: R97, puzzle: Brourd's mod of Exclusion 4) |  | 715 | 90.6 | 
15 | AGUACUAUGCGAGCUGACUUGCGUAGUGCAGCAAGUGAAACAUGAGGAUCACCCAUGUCCUCAUUUGCUCGUCUUAU [Mat - Sensor v3 - Turn-off var 2 - D1] (Eterna round: R96, puzzle: Sensor v3, turn-off variant 2) |  | 31.1 | 34.1 | apparent KD of MS2 coat protein [4]: 662 nM
16 | AGUACUAACACGAAAGUGUUAGUACAAUAAGCUUGUGAAACAUGAGGAUCACCCAUGUCCUCAUAAGCUCGUCUUAG [salish99_TOv2_r3_003] (puzzle: Sensor v3, turn-off variant 2) | 280 |  |  | apparent KD of MS2 coat protein [1]: 16.4 nM; apparent KD of MS2 coat protein [3]: 15.4 nM
17 | CUUUGAUGAGGAUAUCGAGGUUAGUACAUGAGGAUCACCCAUGUUAUCCAGGUGUCGGUUCGAGAAGGUAUUGGAC [LRO-Ex5-17] (puzzle: Exclusion 5) | 15.6 |  |  | 
18 | UGCCUAGCAGGAUAUGCCCGGGAUAACAUGAGGAUCACCCAUGUGACCGAUUGAUAUCCUGCAGAAGGGCUAGGGA [JL-EX5-4.10 ViennaUCT mod] (Eterna round: R97, puzzle: Exclusion 5) |  | 62.1 | 16.7 | 

Row | Sequence | apparent KD of MS2 coat protein [2] [nM] | apparent KD of MS2 coat protein (input ligand: FMN 200 uM) [nM] | apparent KD of MS2 coat protein (input ligand: none) [nM] | further results
19 | CGUAGCAAAGUGAGGAUAUCUAGAGCGAUAGCUCUAGAGAAGGCACAUGAGGAUCACCCAUGUGAUUAGCUACG [BmEx4/9-A4] (Eterna round: R97, puzzle: Brourd's mod of Exclusion 4) |  | 146 | 27.8 | 
20 | AUUUAUGGAGGAUAUACUUGAGGAUCACCCAAGUGGAGUCCCGUUUGGGCGGUAAAUAGUAGAAGGCCGUCCUA [jl-ex3-4.47 ViennaUCT mod] (Eterna round: R97, puzzle: Exclusion 3) |  | 15.7 | 14.2 | 
21 | UAUGGUAAAGUCAGGAUAUACGUACGUCGUUCUAGGUAGAAGGGACAUGAGGAUCACCCAUGUAUGAUAGUAAA [Ex4 #35] (Eterna round: R97, puzzle: Brourd's mod of Exclusion 4) |  | 36.1 | 41.6 | 
22 | ACAUGAGGAUCACCCAUGUUCGGCUGGUCCGUCUCGGCUGUCGAGGAUAUAGCUCGGUGUCCGCGCUAGAAGGCGGGAGCUGGC [Aenatbe mod 66] (Eterna round: R96, puzzle: Exclusion NG 3) |  | 106 | 90 | apparent KD of MS2 coat protein [4]: 47 nM
23 | GUCAUACAUGAGGAUCACCCAUGUAAGGAUAUGCUAGCGGUCGGAAGACUGACUGCUAGCAGAAGGUACAUGAU [Mat - Mod of JL D80] (puzzle: Exclusion 1) | 61.5 |  |  | 
24 | CGUGCGUAUGUGAGGAUAUGCUGGUCCUUGGCUCGGCAGAAGGCACAUGAGGAUCACCCAUGUGGUGUCGUACA [salish99_Bmod_ex4_070] (puzzle: Brourd's mod of Exclusion 4) | 69.4 |  |  | 
25 | AAAACGUGAGGAUAUCCAAUAUAUGACAUGAGGAUCACCCAUGUUUCCACUCGUACCUCCGGAGAAGGCACAAUUA [Ex5 #77] (Eterna round: R97, puzzle: Exclusion 5) |  | 46.4 | 43 | 
26 | GCUUCCCAUGUGAGGAUAUGUAGGGUUAACCCGAGGCAGAAGGCACAUGAGGAUCACCCAUGUUAAAACUUCUA [Xecera] (puzzle: Brourd's mod of Exclusion 4) | 30.8 |  |  | 
27 | AACGUCGAAGGAUAUACAUGAGGAUCACCCAUGUGGGACCUGUAAUCUCACCCAUCGUGUAGAAGGUUGAGGUA [Learberi] (Eterna round: R97, puzzle: Exclusion 3) |  | 29.9 | 35.6 | 
28 | UUGUUGUGUGUAGGAUAUGCAUAUUAUUAUUAUGCAGAAGGACAUGAGGAUCACCCAUGUGUAUUAUUAUUAUAUAUUAUAUAU [Title] (Eterna round: R96, puzzle: Exclusion NG 1) |  |  |  | apparent KD of MS2 coat protein [4]: 18.3 nM
29 | UAUGGUUAAGUCAGGAUAUACUAAUAGAAAUCUGAGUAGAAGGGACAUGAGGAUCACCCAUGUAUGGUAGUGUU [Ex4 #58] (Eterna round: R97, puzzle: Brourd's mod of Exclusion 4) |  | 77.1 | 55.2 | 
30 | UCAGCUUGUGUCAGGAUAUCCAGUCCGACGGGAGAGGAGAAGGGACAUGAGGAUCACCCAUGUAGGCGCCCUAC [Soerrecege] (Eterna round: R97, puzzle: Brourd's mod of Exclusion 4) |  | 63.8 | 461 | 
31 | UAUUAGCAAGCAAGAUCCCACAUGAGGAUCACCCAUGUGCUCGUCUUAUAAGGUACUGUGACGAAAGUCACGGUACC [Sensor 3, v1 - 83] (puzzle: Sensor v3, turn-off variant 1) | 1080 |  |  | apparent KD of MS2 coat protein [1]: 36.8 nM; apparent KD of MS2 coat protein [3]: 38 nM
32 | AGCGAGGUAGGAUAUACAUGAGGAUCACCCAUGUGCUUGUAUGGCGUGGAACAUCGUAGUAGAAGGGCCGCGCC [EX3 #76] (Eterna round: R97, puzzle: Exclusion 3) |  | 21.9 | 20.9 | 
33 | UUUUUACAUGAGGAUCACCCAUGUCAGGAUAUGAUUAUAUUUUAUUAUUUUAUUUUUUUCAGAAGGGACUAUUA [My solution] (puzzle: Exclusion 1) | 80.6 |  |  | 
34 | AGUUCACAUGAGGAUCACCCAUGUGAGGAUAUGGAUUCGCUGGCCGUAGCCAGUGGAUCCAGAAGGCGCAUGAU [JL-ex1-4.14] (Eterna round: R97, puzzle: Exclusion 1) |  | 36.9 | 32 | 
35 | AGUUGCGCAGGAUAUACAUGAGGAUCACCCAUGUGAGAGAAAUAAGUGAGGAAGAAAAGUAGAAGGGCGUGACA [Mat - Exclusion 3 - Mod of Salish D74] (puzzle: Exclusion 3) | 40.6 |  |  | apparent KD of MS2 coat protein [1]: 236 nM; apparent KD of MS2 coat protein [3]: 47.1 nM
